Reference: paper PMC4475061 (2015)
Residue numbers refer to the chain shown, from its start. In names and notes the source's numbering stands.

B1: ULK3(MIT)2 V338D (domain or fragment)
chain: GPHMSGESLGRATALVVQAVKKDQEGDSAAALSLYCKALDFFVPALHYEVDAQRKEAIKAKVGQYDSRAEELKAIVSSSNQALLRQGTSARDLLREMARDKPRLLAALEVASAAMAKEEAAGGEQDALDLYQHSLGELLLLLAAEPPGRRRELLHTEVQNLMARAEYLKEQVKMRES
B2: ULK3(MIT)2 (residues 277–449) (domain or fragment)
chain: B1 chain with D66V
B3: ULK3(MIT)2 M434D (domain or fragment)
chain: B1 chain with D66V, M162D

Key:
[1] = biological target: IST1 MIMs peptide (residues 316–366), fluorescently labeled (human, Oregon Green 488 maleimide on the non-native N-terminal cysteine); assay: FP
[2] = biological target: IST1 MIM2 peptide (residues 316–343); assay: FP

| Binder | Kd [1] [µM] | Kd [2] [µM] |
| --- | --- | --- |
| B1 | 0.32 |  |
| B2 |  | > 300 |
| B3 | 24.3 |  |
